Reference: the nanobody polyreactivity screen of Harvey et al. (2022)

Assay: yeast display, Sf9 membrane polyspecificity reagent, FACS + sequencing; frameworks hold sequencing errors
How it was run: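 Sorting gates, low and high (top ~1%), were placed on anti-HA fluorescence to track expression and on streptavidin fluorescence to track reagent binding. A clone's polyreactivity label is taken from the gate it came out of. The reagent was 10% biotinylated, detergent-solubilized Sf9 membrane, applied for 1 hour at 4 °C to galactose-induced yeast display cells.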

Sequence	polyreactivity (PSR sort gate)
QVQLVESGGGLVQAGGSLRLSCAASGSIFYPYAMGWYRQAPGKERELVASISSGGSTYYADSVKGRFTISRDNGKNTVYLQMISLKTDDTAVYYCIAVFSTFTGEYYWGKGTQVTVSS	high polyreactivity
QDQLVESGGGLVQAGGSLRLSCAASGSIFSKNTMGWYRQAPGKERELVAAISGSGVSTYYADSVKGRFTISRDNAKNTVYLQMNSLKPEDTAVYYCAAGPRFRYYSGWYDYWGQGTQVTVSS	high polyreactivity
QVQLVESGGGLVQAGGSLRLSCAATGYTFFFYAMGWYRQAPGKEREFVAASTWRGDSTYYADSVKGRFTISRDNAKNTVYLQMNSLKPEDTAVYYCAADPGFTWSRRMDYWGQGTQVTVSS	low polyreactivity
QVHLVESGGGFVQAGGSLRLICAASGITFGIYVMGWSRQAPGKERELVATISRSDDNSYYADSVKGRFTISRDNAKNTVYLQMNSLKPEDTAVYYCAADGVISAWYSSRDDYWGQGTQVTVSS	low polyreactivity
QVQLVESGGGLVQAGGSLRLSCAASGLTCSYYAMGWYRQAPGQERELVAAISITGSTNYADSVKGRFTISRDNAKNTVYLQMNSLKPEDTAVYYCAARVRSGTGVGFDYWGQGTQVTVSS	high polyreactivity
QVQLVESGGGLVQAGGSLRLSCAASGRIFRYYAKGWYRQAPGKERELVAAIRSASSTYYADSVKGRFTISRDNAKNTVYLQMNSLKPEDTAVYDCAAGLYGVYNRRYYYWGQGTQVTVSS	high polyreactivity
QVQLVESGGGLVQAGGRLRLSCAASGSTFRGYAMGWYRQAPGKEREFVAAITYTGSSTTYADSVIGRFTISRDNAKTTVYLQMNSLKPEYTADFYCAARYVASRIYKRYYWGQGTQVTVSS	high polyreactivity
QVQLVESGGGLVQAGGSLRLSCAASGLTFVLYAMGWYRQAPGQERELVAAISKRGGSTNYADSVKGRFTISRDNAKNTVYLQMNSLKPADTAVYYCAPRYPQGGTGKATYVRSRSGYWGQGTQVTVSS	high polyreactivity
QVQLVESGGGLVQAGGSLRLSCAASGSIVAWYGMGWYRQAPGKERELVAAISTAGSTNYADSVKGRFTISRDNAKNTVYLQMYSLKPEDTAVHYCAKKSSWYYPERFDYWGQGTQVTVSS	low polyreactivity
QVQLVESGGGLVQAGGSLRLSCAASGLTFVKNVMGWYRQAPGKERELVAAISRRGGSTYSADSVKGRFTISRDNAKNTVYLQMNSLQPADTAVYYCAARTPSPTRPQYYYWGQGTQVTVSS	high polyreactivity
QVQLVESGGGLVQAGGSLRLSCAASGSTFSGSVMGWDRPAPGKERELVAAISNRGGRTYYADSVKGRFTISRDNAKNTVYLQMNSLKPEDTAVYYCAARGVVDAGRTNRPYDYWGQGTQVTVSS	low polyreactivity
QVQLVESGGGLVQAGGSLRLSCAASGITFKYYTMGWYRQAPGKERELVAAITSRAGRTYADSVKGRFTISRDNAKNTVYLQMNSLKPEDTAVYYCARRVDYPYAYDYWGQGTQVTVSS	high polyreactivity
QVQLVESGGGLVQAGGSLRLSCAASVSIFWLYAMGWYRQAPGKERELVAAITYSGGRTYADSVKGRFTISRDNAKNTVYVQMISLKPEDTEVIYCATVFRYRKSWGYDYWGQGTQVTVSS	low polyreactivity
QVQLLESGGGLVQAGGSLRLSCAASGITFPYYAMGWYRQAPGKERELVAAISSSGGSTYYADSVKGRFTISRDIAKNTVYLQMNSLKPEDTAVYYCAAQRYINYDYWGQGTQVTVSS	high polyreactivity
QVQLVESGGGLVQAGGSLRLSCAASGIIFLDYVMGWYRQAPGKERELVAAISRSGGTTYYADSVKGRFTISRDNAKNTVYLQMNSLKPEDTAVYYCAVRSYRDTRFYYWGQGTQVTVSS	high polyreactivity
QDQLVESGGGLVQAGGRLRLSCAASGSIFVRNFMGWYRQAPGKERELVPAISWNGGSTFYADSVKWRFTISRDNAKNTVYLQMNSLKPEETAVYYCATRYGRHGWFYLYDYWGQGTQVTVSS	low polyreactivity
QVQLVESGGGLVQAGGSLRLSCAASGLIFDSYAMGWYRQAPGKERELVAAITYTGGSTYYADSVKGRFTISRDNAKNTVYLQMNSLKPEDTAVYYCAARRQRDRYGYWGQGTQVTVSS	high polyreactivity
QVQLVESGGGLVQAGGSLRLSCAASGYIFYNYAMGWYRQAPGKERELVAAISRRGGSTYYADSVKGRFTISRDNAKNTVYLEMNSLKPEDTAVYYCAAKQYGWNLYGYWGQGTQVTVSS	high polyreactivity
QVQLVESGGGLVQAGGSLRLSCAASGFTFGSNAMGWYRQAPGKERELVAAINYSGVRTYYADSVKGRFTISRDNAKNTVYLQMNSLKPEDTAVYYCAKKRSKRISFDYWGQGTQVTVSS	high polyreactivity
QVQLVESGGGLVQAGGSLRLSCAASGRIFFVYAMGWYRQAPGKERELVASITGGGSTNYADSVKGRFTISRDNAKNTVYLQMNSLKPEDTAVYYCAADIHSTRVFPEYPSGYDYWGQGTQVTVSS	low polyreactivity
QVQLVESGGGLVQAGGSLRLSCAASGRIFYYYAMGWYRQAPGKEREFVAAISGSGGTTYYADSVKGRFTISLDNAKNTVYLQMNSLKPEDTAVYYCNAKAVRGRYVWFDYWGQGTQVTVSS	high polyreactivity
QVQLVESGGGLVQAGGSLRLSCAASGITFRSYAMGWYRQAPGKERELVATISGRGGRTYYADSVKGRFTISRDNAKNTVYLQMNSLKPEDTAVYYCAARLHSYGVGVDYWGQGTQVSVSS	high polyreactivity

Sequence	polyreactivity (PSR sort gate)
QVQLVESGGGLVQAGGSLRLSCAASGRIFGHYVMGWYRQAPGTERELVAAISYSGGSTYYAHSVKGRFTISRDNAKNTVYLQMNSLKPEDTAVYYCAAYVYRYHRVAYEYWGQGTQVTVSS	high polyreactivity
QVQLVESGGGLDQAGGSLRLTWAASGSIIGRNFMGLYRQAPGKEREFLAAIRSSGATTYYADSVKGRFTISRDNAKYTVFLQMTSLKPEDTAVYYCNARPPYYTVQTGGYDYWGQGTQVTVSS	low polyreactivity
QVQLVESGGGLVQAGGSLRLRGAASGGIISSYVLGWYRQAPGKERELVAAISRSGGSTYYADSVKGRFTISRDNAKNTVNLQMNSLKPEDTAVYYCAAVLQTRYNYWGQGTQVTVSS	high polyreactivity
QVQLVESGGGLVQAGGSLRLSCAASGIIFDYYAMGWYRQAPGKERELVAAISKRGGSTYYADSVKGRFTISRDNAKNTVYLQMNSLKPEDTAVYYCAAEYSKRWWYYYWGQGTQVTVSS	high polyreactivity
QVQLVESGGGLVQAGGSLRLSCAASGRTFIGNVMGWYRQAPGKERELVAAISKSGTRTYYPDSVKGRFTISRDNAKNTVYLQMNSLKPEYTAVYYCAKDHYPRTDDFGYWGQGTQVTVSS	high polyreactivity
QVQLVESGGGLVQAGGSLRLSCAASGLTFYLYAMGWNRQAPGKERELVAAINSRGGNTYYADSVKGRFTISRDNAKNTVYLQMNSLKPEDTAVYYCNAGRTFYSYAYGYWGQGTQVTVSS	high polyreactivity
QVQLVESGGGLVQAGGSLRLSCAASGRTFYRNAMGWYRQAPGKERELVARINDGAGTYYADSVKGRFTISRDNAKNTVYLQMNSLKPEDTAVYYCADDTWGTPTPFVHYPEFEHWGQGTQVTVSS	low polyreactivity
QVQLVESGGGLVQAGGSLRLSCAASGSIFSSYAMGWYRQAPGKERELVAAITRRGGSTYYADSVKGRFTISRDNAKNTVYLQMNSLKPEDTAVYYCATGITARSRYGYWGQGTQVTVSS	high polyreactivity
QVQLVESGGGLVQAGGSLRLSCAASGRTFYAYAMGWYRQAPGKERELVATISSSDASTYYADSVKGRFTISRDNAKNTVNLQMNSLKPEETAVYYCNADFVRPSWARGRNNGLYYWGQGTQVTVSS	low polyreactivity
QVQLVESGGGLVQAGGSLRLSCAASGSTFSPYAMGWYRQAPGKERELVAAISYDGGSTYYADSVKGRFTISRDNAKNTVYLQMNSLKPDDTAGYYCAADYFRSYEGTYWVVASYYYWGQGTQVTVSS	low polyreactivity
QVQLVESGGGLVQAGGSLRLSCAASGRTFAGYAMGWYRQAPGKERELVAGISVDDSTTYYADSVKGRFTISRDNAKNTVYLQMNSLKPEDTAVYYCAAEREKTLYYLSRFDYWGQGTQVTVSS	low polyreactivity
QVQLVESGGGLVQAGGSLRLSCAASGRIFVVNAMGWYRQAPGKERELVAAITRRGGSTYADSVKGRFTISRDNAKNTVYLQMNSLKPEDTAVYYCNKLVTGGSWSPGHYRYNYWGQGTQVTVSS	high polyreactivity
QVHLVESGGGLVQAGGSQRLSCAASGSIFKYYAKAWYRQQPGKERELVATITNGGNTNYADSVYGRFTISRDNPKKTVYLQRNSLKPEDTAVYYCAARLWCKRYSSPTSLQRYDYWRQGTQVTVSS	high polyreactivity
QVQLVESGGGLVQAGGSLRLSCAASGLTLRRYAMGWYIQAPGKERELVASINSGTSTKYADSVKGRFTISRDNAKNTVYLQMKSLKPEDTALYYCGAAVYFPTAGSRRAYYYWGQGTQGTVSS	high polyreactivity
QVQLVESGGGLVQAGGILRLSCAASGSIFYAYAMGWYRQAPGKERELVASITWSGASTYYADSVKGRFTISRDNAKNTVYLQMNSLKPEDTAVYYCAATDQKLSLDYSSYEYWGQGTQVTVSS	low polyreactivity
QVQLVESGGGLVQAGGSLRLSCAASGSIFWSYAMGWYRQAPGKERELVAAITTDGGTNYADSVKGRFTISRDNAKNTVYLQMNSLKPEDTAVYYCAARYGTSYIVRWTYYAFDYWGQGTQVTVSS	low polyreactivity
QVQLVESGGGLVQAGGSLRLSCAASGSIFWPNTMGWYRQAPGKERELVAGISFGGGSTYYADSVKGRFTISRDNAKNTVYLQMNSLKPEDTEVYYCNAPGPVISRRTDSYWYGWYDYWGQGTQVTVSS	low polyreactivity
QVQLVESGRGLVQAGGSLPLSCSASGSIFAYYTMGWYRQAPGKERDLVAAISETGGSTYYADSVKGRFTISRDIAKNTVYLQMNSLKPEDTAVYYCNADKYYYYTGQEYYPQYGYWGQGTQVSVSS	low polyreactivity
QVQLVESGGGIVQAGGSLRLSCAASGRTFLYNAMGWYRQAPGKERELVAAISKSGGSTYYADSVKGRFTISRDNAKNTVYLLMNSLKPEESAVYYCAKVGGYRGRPSFGDWGQGTQVTVSS	high polyreactivity
QVQLVESGGGLVQAGGSLRLSCAASGRIFVHYVMGWYRQAPGKERELVAAISRSGGRTYYADSVKGRFTISRDNAKNTVYLQMNSLKAEDTAVYYCATDASTYKYDYWGQGSQVTVSS	high polyreactivity
QVQLVESGGGLVQAGGSLRLSCAASGSTFRLYAMGGSRQAPGKERELVAAIRSGGNTNNADSVKGRFTISRDNAKHTVYLQMNSLKPEDTAVYYCNGFSGQLPVPNYDYWGQGTQVTVSS	high polyreactivity
